Test results reported in article PMC7866087, “Evaluation of Computationally Designed Peptides against TWEAK, a Cytokine of the Tumour Necrosis Factor Ligand Family” (International Journal of Molecular Sciences, 2021).

Assays:
[1] = tested on: TWEAK-Fn14 signalling pathway, BRV5 cells; test: Cell-based screening of pooled peptides, gene expression microarray in TWEAK-stimulated BRV5 cells; parameters: species or system human; details: 6 h; for BIRC2 expression Z-Score / HSP90B1 expression Z-Score / IL6 expression Z-Score / JUN expression Z-Score / MAP4K4 expression Z-Score / MAPK14 expression Z-Score / NFKB2 expression Z-Score / TNFRSF12A expression Z-Score / TRAF2 expression Z-Score: BRV5 + TWEAK, normalized to NARS2
Method: To optimize resources and rationalize the analysis, we ran the screening by pooling the 50 peptides into six groups, i.e., Pool 1 to 6, containing […] peptides each and displaying similar MW (Supplementary Materials Table S1). We monitored the activity of pooled peptides on TWEAK-Fn14 signalling pathways following the design described in Material and Methods. BRV5 cells were cultured in the presence or absence of TWEAK and treated with peptides at different time points.
As a preliminary study, we performed an experiment with 435-P and BRV5 cells to assess the effect on the level of expression on the selected genes in cultures with or without TWEAK (Supplementary Materials Figure S2A). Negative controls without pool 1 peptides were included in the protocol to avoid unspecific biases in the inhibition ratio. To achieve optimal conditions to measure peptide activity, preventing peptide degradation in the culture medium, the effect of peptides was evaluated by priming cultures with peptide every hour (0–5 h), every two hours (0, 2, and 4 h) and every three hours (0 and 3 h). In these experiments, the housekeeping gene NARS2 was used to normalize gene expression.
Three different cell lines were used in this study: BRV5, MDA-MB 435 (435-P), and HT29. The BRV5 is a highly metastatic brain cell line, obtained in one of our laboratories by primary culture from a brain of a nude mouse inoculated with human 435-Br1 brain metastatic cells, as previously described and used as a model to test the peptides in cell cultures. […] The triple negative 435-P cell line is a useful human breast cancer model that expresses both epithelial and melanocytic markers, and was included as the parental cell from which 435-Br1 metastatic variant was initially originated (both cell lines kindly provided by Dr Fabra at IDIBELL Institute, Hospitalet de Llobregat, Spain). Finally, HT29 human colon carcinoma cells obtained from the European Type Culture Collection (ECACC 91072201) were used as a positive control of TWEAK dependent Fn14 over-expressing cells to evaluate TWEAK-Fn14 axis of brain metastatic variants.
Appropriate cell culture conditions were established as the controls needed in the expression of genes with and without peptides and with and without TWEAK activation, both as pools and individually (see Supplementary Materials Figure S2). The protocol started with the seeding of 125,000 cells/well in 500 µL of culture media supplemented with 10% fetal bovine serum (CM+FBS10%) in 24-well dishes for 24 h before removing FBS (CM-FBS). After overnight starvation in CM-FBS culture, different peptide treatment conditions (at final concentration of 450 µM) were established in the presence or absence of TWEAK (25 ng/mL final concentration) (Peprotech EC, Ltd., London, UK). Some cells were treated with peptides at a single, unique, initial dose (time 0) while other were treated with repeated doses to account for the effect cell-culture degradation. These include a repeated treatment every hour (i.e., […]), every two hours (time 0, 2, and 4) and every three hours (time 0 and 3)—see Supplementary Materials Figure S2 for diagrammatic depiction. At time 6 (after six hours) cells were lysed and RNA extracted for transcriptomic analyses (see next). Cell were culture for six hours as this was the time needed to achieve the highest upregulation of the TWEAK-Fn14 axis upon TWEAK treatment as shown in previous time-course RT-PCR experiments (see Figure 2).
RNA from cells was extracted 6 h after treatments by direct lysis on the well. The RNeasy Micro kit (Qiagen, Hilden, Germany) was used to isolate total RNA from cell lysate following manufacturer’s protocols including an additional step of digestion with DNase I (Qiagen, Hilden, Germany). Total RNA concentration was measured in a NanoDrop 1000 spectrophotometer (Thermo Scientific, Waltham, MA, USA). […]

[2] = tested on: HT29 cells, NIK expression; test: Time-course RT-PCR of NIK (MAP4K4), HT29; assay type: cell-based, human; details: TWEAK, 6 to 24 h
[3] = tested on: BRV5 cells, NIK expression; test: Time-course RT-PCR of NIK (MAP4K4), BRV5; assay type: cell-based, human; details: TWEAK, 6 to 24 h
Description: The final aspect to consider in the characterization of BRV5 cells prior to the screening of peptides was to assess when the signalling pathway mediated by TWEAK-Fn14 will be at its peak of activity. To that end, we monitored the level of expression of the primary kinase NIK (MAP4K4) at different time points. It has been reported that transcriptional activation of Fn14 would be operated mainly by the NF-κB non-canonical pathway, through inducing the primary kinase NIK (MAP4K4) that phosphorylates IKKα [26]. Thus, we assessed the level of expression of NIK from 6 to 24 h after cells were treated with TWEAK in a time-course RT-PCR (Figure 2). […] From these experiments we concluded that TWEAK-Fn14 pathway is mainly activated at 6 h after treating cells, and thus we designed out experiments to check the inhibitory ability of the peptides at this specific time point.
Figure 2 NIK activation in brain metastatic cells. Metastatic cells were primed with TWEAK in a time-course RT-PCR experiment. […] Bars and error bars represent the average and standard deviation as calculated from three replicates respectively.

[4] = pools, BRV5 + TWEAK 25 ng/mL, 450 µM every hour

B1: tumour necrosis factor-like weak inducer of apoptosis (protein, UniProt O43508 94-249, looked up)
Tumor necrosis factor ligand …: SAPKGRKTRARRAIAAHYEVHPRPGQDGAQAGVDGTVSGWEEARINSSSPLRYNRQIGEFIVTRAGLYYLYCQVHFDEGKAVYLKLDLLVDGVLALRCLEEFSATAASSLGPQLRLCQVSGLLALRPGSSLRIRTLPWAHLKAAPFLTYFGLFQVH
regulation of probe genes by pooled peptides ([1]; BRV5 + TWEAK 25 ng/mL, peptides 450 µM every hour, versus T): higher level of expression overall when compared to untreated and unstimulated cells | downstream activation of MAP4K4 (NIK), TRAF2, and BIRC2 (IAP2) ([1]; TWEAK, BRV5): occurred at 6 h in BRV5 cells | BIRC2 mRNA expression (normalized to NARS2) [1, 4]: 1.448 | HSP90B1 mRNA expression (normalized to NARS2) [1, 4]: 8.392 | IL6 mRNA expression (normalized to NARS2) [1, 4]: 0.0007818 | JUN mRNA expression (normalized to NARS2) [1, 4]: 0.04566 | MAP4K4 mRNA expression (normalized to NARS2) [1, 4]: 0.7707 | MAPK14 mRNA expression (normalized to NARS2) [1, 4]: 0.5877 | NFKB2 mRNA expression (normalized to NARS2) [1, 4]: 0.193 | TNFRSF12A mRNA expression (normalized to NARS2) [1, 4]: 0.06934 | TRAF2 mRNA expression (normalized to NARS2) [1, 4]: 0.0999 | BIRC2 expression Z-Score ([1]; pools): 1.233 | HSP90B1 expression Z-Score ([1]; pools): -0.5008 | IL6 expression Z-Score ([1]; pools): -1.234 | JUN expression Z-Score ([1]; pools): -1.012 | MAP4K4 expression Z-Score ([1]; pools): -0.5276 | MAPK14 expression Z-Score ([1]; pools): 0.2377 | NFKB2 expression Z-Score ([1]; pools): -0.03742 | TNFRSF12A expression Z-Score ([1]; pools): -0.4905 | TRAF2 expression Z-Score ([1]; pools): 1.245 | BIRC2 expression Z-Score ([1]; pools, listed as T): 1.2334 | HSP90B1 expression Z-Score ([1]; pools, listed as T): -0.5008 | IL6 expression Z-Score ([1]; pools, listed as T): -1.2337 | JUN expression Z-Score ([1]; pools, listed as T): -1.0121 | MAP4K4 expression Z-Score ([1]; pools, listed as T): -0.5276 | MAPK14 expression Z-Score ([1]; pools, listed as T): 0.2377 | NFKB2 expression Z-Score ([1]; pools, listed as T): -0.0374 | TNFRSF12A expression Z-Score ([1]; pools, listed as T): -0.4905 | TRAF2 expression Z-Score ([1]; pools, listed as T): 1.2452 | NIK expression [2]: highest NIK expression, occurred 6 h after | NIK expression [3]: increased in TWEAK stimulated BRV5 cells after 6 h of treatment, decreasing at 12 h and partially recovered at 24 h
